In US20220025050A1 (OSE IMMUNOTHERAPEUTICS, published 2022):

Tests used:
[1] = target: T1, biotinylated Human PD1 (AcroBiosystems, reference EP-101) (human, UniProt Q15116 25-167, limits assumed, biotinylated); assay: competition ELISA: PD-L2 Fc immobilised, biotinylated PD-1 mixed with the fusion at varied concentration, streptavidin-peroxidase; blocked ligand PD-L2 [following]
T1 construct: also called biotinylated recombinant human PD-1; recombinant biotinylated PD1 protein
Protocol: (§1) FIG. 8: Competition PD-1/PD-L1 or PD-L2 ELISA assay. […] (D): PD-1/PD-L2 antagonist activity. […] Similar protocol as PD-L1/PD-1 assay was used for revelation. In this experiment, the bifunctional molecule comprises a humanized anti-PD1 antibody having a heavy chain variable domain as disclosed in SEQ ID NO: 24 and a light chain variable domain as disclosed in SEQ ID NO:28.
(§2) Competitive ELISA assay was performed by PD-1:PD-L1 Inhibitor Screening ELISA Assay Pair (AcroBiosystems; USA; reference EP-101). In this assay, recombinant hPDL1 was immobilized on plastic at 2 μg/ml in PBS pH 7.4 buffer. […] Same ELISA protocol was performed to assess PDL2/PD1 antagonist activity by coating PD-L2 Fc recombinant protein (Sinobiological, #10292-H02H).

[2] = target: T1, biotinylated Human PD1 (AcroBiosystems, …); assay: competition ELISA: PD-L1 immobilized, biotinylated PD-1 at fixed concentration, antibody varied
Protocol: as §1, §2

[3] = target: T2, recombinant hPD1 (Sino Biologicals, reference 10377-H08H) (human, UniProt Q15116 25-167); assay: ELISA: hPD-1 immobilized, anti-human Fc peroxidase
T2 construct: also called Human recombinant PD-1 protein; PD1-His recombinant protein
T2 sequence (Q15116 25-167 limits assumed): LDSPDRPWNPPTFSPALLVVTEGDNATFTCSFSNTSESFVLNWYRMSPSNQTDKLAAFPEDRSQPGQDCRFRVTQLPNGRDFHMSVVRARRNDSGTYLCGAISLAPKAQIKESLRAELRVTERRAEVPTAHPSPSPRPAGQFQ

T1 sequence (Q15116 25-167 limits assumed): as above

Row | Binder | IC50 (read off the curve) [1] | also measured
1 | Anti-PD1 Ab alone, no fusion (FIG. 8 / Table 5) (antibody, V domains shown, also called anti-PD1 antibody alone) VH: QIQLVQSGSELKKPGASVKVSCKASGYTFTHYAMNWVRQAPGQGLEWMGWINTNTGEPTYAQGFTGRFVFSLDTSVSTAYLQISSLKAEDTAVYYCAREREPGMDNWGQGTLVTVSS VL: DVVMTQSPLSLPVTLGQPASISCRSSQSLVHANTNTYLEWYQQRPGQSPRLLIYKVSNRFSGVPDRFSGSGSGTDFTLKISRVEAEDVGVYYCFQGTHVPNTFGQGTKLEIK | – | IC50 [2]: 0.184 µg/mL
2 | Anti-PD1 Ab alone, no fusion, FIG. 4 / Table 1 (antibody, V domains shown) VH: QIQLVQSGSELKKPGASVKVSCKASGYTFTHYAMNWVRQAPGQGLEWMGWINTNTGEPTYAQGFTGRFVFSLDTSVSTAYLQISSLKAEDTAVYYCAREREPGMDTWGQGTLVTVSS VL: DVVMTQSPLSLPVTLGQPASISCRSSQSLVHANTNTYLEWYQQRPGQSPRLLIYKVSNRFSGVPDRFSGSGSGTDFTLKISRVEAEDVGVYYCFQGTHVPNTFGQGTKLEIKR | – | EC50 [3]: 0.00167 µg/mL

Continued, in another order:

Row | IC50 (read off the curve) [1] | Binder | also measured
3 | ~0.7 µg/mL | Humanized anti-PD1 (VH SEQ ID NO:24, VL SEQ ID NO:28) VH fusion to Cytokine-protein A (IL-7) (other, not shown: small tags and cut ends, Bifunctional molecule; also called Anti-PD1 fused to Cytokine-protein A (IL-7), VH fusion; anti PD-1 VH IL-7) heavy: QIQLVQSGSELKKPGASVKVSCKASGYTFTHYAMNWVRQAPGQGLEWMGWINTNTGEPTYAQGFTGRFVFSLDTSVSTAYLQISSLKAEDTAVYYCAREREPGMDNWGQGTLVTVSS VL: DVVMTQSPLSLPVTLGQPASISCRSSQSLVHANTNTYLEWYQQRPGQSPRLLIYKVSNRFSGVPDRFSGSGSGTDFTLKISRVEAEDVGVYYCFQGTHVPNTFGQGTKLEIK | –
4 | ~0.9 µg/mL | Humanized anti-PD1 (VH SEQ ID NO:24, VL SEQ ID NO:28) VH fusion to CD80 (other, not shown: small tags and cut ends, Bifunctional molecule; also called anti PD-1 VH CD80) heavy: QIQLVQSGSELKKPGASVKVSCKASGYTFTHYAMNWVRQAPGQGLEWMGWINTNTGEPTYAQGFTGRFVFSLDTSVSTAYLQISSLKAEDTAVYYCAREREPGMDNWGQGTLVTVSS VL: DVVMTQSPLSLPVTLGQPASISCRSSQSLVHANTNTYLEWYQQRPGQSPRLLIYKVSNRFSGVPDRFSGSGSGTDFTLKISRVEAEDVGVYYCFQGTHVPNTFGQGTKLEIK | –
